Measurements: the supplement of paper PMC10724198
± gives the standard deviation of the averaged measurements.

What was measured:
Saccharomyces cerevisiae [1] = assay: protein stability index of tFT-peptide fusion (C-terminal peptide) (PSI (0-1 scale)); higher = more stable (slower turnover)
Protocol: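 MPS profiling in S. cerevisiae of the tFT-X12 degron library: putative degron peptides plus stable controls, 12 aa, fused to the C-terminus of a sfGFP-mCherry timer. Cells are FACS-sorted into 8 mCherry/sfGFP bins and deep-sequenced. PSI runs from 0 (unstable) to 1 (stable). Backgrounds are wild type, das1Δ and doa10Δ at 30 °C, and wild type, das1Δ, cdc34-1 and cdc53-1 at 37 °C; 2-3 technical replicates each.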

Saccharomyces cerevisiae [2] = assay: as above; conditions: genetic background: wild type; temperature: 30 C
[3] = genetic background: cdc34-1, temperature: 37 C
[4] = genetic background: cdc53-1, temperature: 37 C
[5] = genetic background: das1 deletion, temperature: 30 C
[6] = genetic background: das1 deletion, temperature: 37 C
[7] = genetic background: doa10 deletion, temperature: 30 C
[8] = genetic background: wild type, temperature: 30 C
[9] = genetic background: wild type, temperature: 37 C
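Note: PSI is a weighted mean of sequencing reads over stability bins, variants kept only with over 10 reads, mCherry proximal and sfGFP distal, peptide attached via GGGS linker.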

Sequence	protein stability index (Saccharomyces cerevisiae [1]; [3])	protein stability index (Saccharomyces cerevisiae [1]; [4])	protein stability index (Saccharomyces cerevisiae [1]; [5])	protein stability index (Saccharomyces cerevisiae [1]; [6])	protein stability index (Saccharomyces cerevisiae [1]; [7])	protein stability index (Saccharomyces cerevisiae [1]; [8])	protein stability index (Saccharomyces cerevisiae [1]; [9])	protein stability index (Saccharomyces cerevisiae [2])
LSTPPLLPTPPS	0.672 ± 0.029	0.7296 ± 0.0032	0.664 ± 0.012	0.7182 ± 0.0062	0.672 ± 0.029	0.669 ± 0.014	0.6988 ± 0.0048	0.7113 ± 0.0049
CTLVVGLFVLVV	0.168 ± 0.02	0.315 ± 0.022	0.209 ± 0.034	0.375 ± 0.024	0.168 ± 0.0065	0.216 ± 0.028	0.322 ± 0.0064	0.362 ± 0.0094
FGVLFFVFVFVC	0.149 ± 0.015	0.243 ± 0.051	0.193 ± 0.02	0.322 ± 0.011	0.112 ± 0.021	0.129 ± 0.022	0.203 ± 0.03	0.177 ± 0.024
SPSSLPRPLFLS	0.592 ± 0.015	0.726 ± 0.017	0.616 ± 0.015	0.7356 ± 0.0018	0.138 ± 0.033	0.163 ± 0.02	0.289 ± 0.026	0.261 ± 0.053
FFFVLVSGWWGV	0.181 ± 0.0054	0.344 ± 0.059	0.237 ± 0.027	0.472 ± 0.044	0.205 ± 0.022	0.221 ± 0.021	0.374 ± 0.013	0.36 ± 0.041
PVCRQVGVRLVA	0.582 ± 0.022	0.625 ± 0.052	0.525 ± 0.025	0.6482 ± 0.0047	0.265 ± 0.0046	0.311 ± 0.034	0.466 ± 0.039	0.456 ± 0.045
TSPYTSFAHTSL	0.694 ± 0.029	0.739 ± 0.016	0.677 ± 0.031	0.739 ± 0.0074	0.662 ± 0.017	0.6569 ± 0.006	0.71286 ± 0.00012	0.69 ± 0.022
LLLVPLLAFSAS	0.56 ± 0.054	0.63 ± 0.029	0.473 ± 0.034	0.6084 ± 0.0031	0.462 ± 0.027	0.46 ± 0.019	0.598 ± 0.015	0.521 ± 0.035
FIICAASWFFLG	0.456 ± 0.025	0.624 ± 0.032	0.474 ± 0.036	0.62 ± 0.02	0.109 ± 0.014	0.127 ± 0.016	0.225 ± 0.079	0.224 ± 0.025
AGLTLLWPLCLL	0.28 ± 0.0058	0.261 ± 0.0053	0.277 ± 0.022	0.394 ± 0.013	0.591 ± 0.01	0.265 ± 0.034	0.353 ± 0.013	0.3669 ± 0.0023
RVFRRFCCVISM	0.312 ± 0.034	0.342 ± 0.018	0.342 ± 0.029	0.49 ± 0.045	0.437 ± 0.027	0.339 ± 0.022	0.439 ± 0.015	0.366 ± 0.025
RLGSLVPLAKQL	0.643 ± 0.11	0.745 ± 0.03	0.6729 ± 0.0062	0.737 ± 0.023	0.319 ± 0.0077	0.289 ± 0.023	0.413 ± 0.04	0.444 ± 0.059
PFFCFLLFCFSL	0.477 ± 0.032	0.498 ± 0.0033	0.439 ± 0.033	0.5465 ± 0.00098	0.459 ± 0.0093	0.419 ± 0.027	0.5292 ± 0.0024	0.455 ± 0.037
FFLFFLSFGCFL	0.489 ± 0.078	0.533 ± 0.031	0.421 ± 0.029	0.5391 ± 0.0019	0.4551 ± 0.0028	0.459 ± 0.032	0.505 ± 0.016	0.529 ± 0.048
LAFMYFVCPRLA	0.598 ± 0.045	0.645 ± 0.0077	0.56 ± 0.02	0.6511 ± 0.0057	0.245 ± 0.0083	0.269 ± 0.031	0.464 ± 0.022	0.369 ± 0.0057
WSISFGLLVCWV	0.27 ± 0.045	0.322 ± 0.0049	0.199 ± 0.019	0.42 ± 0.013	0.154 ± 0.012	0.191 ± 0.016	0.379 ± 0.066	0.233 ± 0.039
LGGCVSYINLLA	0.592 ± 0.032	0.682 ± 0.018	0.594 ± 0.022	0.6997 ± 0.0013	0.197 ± 0.024	0.236 ± 0.015	0.3917 ± 0.0035	0.308 ± 0.026
SGCWGRRLWFFN	0.668 ± 0.04	0.791 ± 0.018	0.66 ± 0.037	0.7567 ± 0.0052	0.189 ± 0.018	0.235 ± 0.016	0.453 ± 0.011	0.325 ± 0.065
HSRALLPYLSYH	0.684 ± 0.04	0.753 ± 0.016	0.651 ± 0.021	0.7732 ± 0.007	0.408 ± 0.013	0.388 ± 0.021	0.558 ± 0.012	0.518 ± 0.029
VQVLVAIMDGRM	0.346 ± 0.023	0.4143 ± 0.0016	0.371 ± 0.031	0.387 ± 0.004	0.38 ± 0.039	0.37 ± 0.019	0.39 ± 0.017	0.354 ± 0.011

Sequence	protein stability index (Saccharomyces cerevisiae [1]; [3])	protein stability index (Saccharomyces cerevisiae [1]; [4])	protein stability index (Saccharomyces cerevisiae [1]; [5])	protein stability index (Saccharomyces cerevisiae [1]; [6])	protein stability index (Saccharomyces cerevisiae [1]; [7])	protein stability index (Saccharomyces cerevisiae [1]; [8])	protein stability index (Saccharomyces cerevisiae [1]; [9])	protein stability index (Saccharomyces cerevisiae [2])
RDYIAAKLVVCG	0.4103 ± 0.0032	0.425 ± 0.029	0.304 ± 0.03	0.488 ± 0.0021	0.267 ± 0.0034	0.318 ± 0.027	0.4612 ± 0.0016	0.35 ± 0.091
NAPSAIQKNKKC	0.696 ± 0.016	0.6886 ± 0.0037	0.649 ± 0.036	0.71782 ± 0.00039	0.211 ± 0.016	0.281 ± 0.037	0.515 ± 0.08	0.433 ± 0.081
LFPVFFPLFAPA	0.285 ± 0.029	0.336 ± 0.035	0.266 ± 0.034	0.404 ± 0.018	0.206 ± 0.013	0.271 ± 0.018	0.36504 ± 0.00017	0.322 ± 0.03
GVCRFFCLVFCS	0.544 ± 0.02	0.5349 ± 0.0021	0.507 ± 0.049	0.515 ± 0.018	0.494 ± 0.013	0.441 ± 0.018	0.4723 ± 0.003	0.466 ± 0.036
DYRCWCAILVSS	0.162 ± 0.0075	0.187 ± 0.0085	0.207 ± 0.029	0.3345 ± 0.0016	0.146 ± 0.013	0.172 ± 0.032	0.246 ± 0.013	0.2611 ± 0.00049
LGALFGRFWWYF	0.664 ± 0.024	0.7416 ± 0.0074	0.654 ± 0.01	0.795 ± 0.013	0.278 ± 0.012	0.291 ± 0.023	0.541 ± 0.016	0.42 ± 0.027
FILSLSFVFSRP	0.415 ± 0.037	0.501 ± 0.011	0.425 ± 0.027	0.462 ± 0.012	0.452 ± 0.039	0.441 ± 0.046	0.441 ± 0.026	0.405 ± 0.073
SFVCFFLNLFVY	0.0549 ± 0.013	0.138 ± 0.013	0.172 ± 0.032	0.272 ± 0.017	0.123 ± 0.021	0.123 ± 0.019	0.18 ± 0.018	0.164 ± 0.0077
WFLFVLCAWGFF	0.295 ± 0.026	0.339 ± 0.0033	0.263 ± 0.013	0.374 ± 0.039	0.263 ± 0.014	0.241 ± 0.012	0.3042 ± 0.00084	0.135 ± 0.0012
HGVRLHTVWVGG	0.55 ± 0.029	0.559 ± 0.026	0.413 ± 0.011	0.597 ± 0.0065	0.347 ± 0.0076	0.4 ± 0.033	0.5437 ± 0.005	0.4918 ± 0.0038
FFYRFQDLPRIC	0.681 ± 0.018	0.743 ± 0.037	0.651 ± 0.015	0.7358 ± 0.0068	0.191 ± 0.018	0.231 ± 0.035	0.537 ± 0.033	0.397 ± 0.074
FNLTCLLISFFN	0.593 ± 0.02	0.609 ± 0.063	0.453 ± 0.036	0.658 ± 0.0081	0.368 ± 0.005	0.417 ± 0.015	0.553 ± 0.028	0.519 ± 0.045
LGRFHLACLLFL	0.588 ± 0.013	0.61417 ± 0.00036	0.486 ± 0.028	0.6113 ± 0.004	0.41 ± 0.0065	0.412 ± 0.035	0.543 ± 0.014	0.43 ± 0.048
KYQVIILQTRKI	0.578 ± 0.014	0.754 ± 0.0091	0.634 ± 0.063	0.765 ± 0.032	0.201 ± 0.064	0.252 ± 0.053	0.491 ± 0.02	0.398 ± 0.0041
SIRIIVVVRGAS	0.528 ± 0.048	0.628 ± 0.056	0.433 ± 0.023	0.61 ± 0.071	0.393 ± 0.024	0.41 ± 0.017	0.543 ± 0.02	0.382 ± 0.12
CSYPTLSMYSTT	0.673 ± 0.068	0.766 ± 0.038	0.655 ± 0.013	0.718 ± 0.017	0.665 ± 0.007	0.645 ± 0.013	0.71 ± 0.011	0.74 ± 0.072
WISVRIFISCFF	0.177 ± 0.0059	0.269 ± 0.02	0.191 ± 0.024	0.318 ± 0.0052	0.192 ± 0.0026	0.191 ± 0.035	0.271 ± 0.0047	0.267 ± 0.022
RDPLAPLLLAIP	0.65 ± 0.038	0.717 ± 0.015	0.587 ± 0.011	0.7006 ± 0.0047	0.596 ± 0.04	0.609 ± 0.013	0.6816 ± 0.0035	0.698 ± 0.01
FVRSVFFCVSVG	0.498 ± 0.037	0.531 ± 0.017	0.396 ± 0.029	0.548 ± 0.019	0.34 ± 0.012	0.373 ± 0.027	0.5 ± 0.018	0.469 ± 0.057
